Test results reported in patent publication US8785391B2, “Compound and method for treatment of alzheimer's disease and familial dementia” (Alphabeta AB, priority 2010, dated 2014).

Experiments:
recombinant Bri2(90-236) = target: T1, recombinant Bri2(90-236) (Homo sapiens, UniProt Q9Y287); assay: ESI-MS binding of peptides to recombinant Bri2(90-236) (substrate specificity); details: 20 μM Bri2(90-236); for complex formation of peptide with recombinant Bri2(90-236): 50 μM peptide (peptide/protein ratio 2.5)
T1 construct: His6 (N, cleaved yes); thioredoxin (N, cleaved yes); made in house; host or cells: E. coli Origami(DE3)pLysS, pET-32c vector
T1 sequence (Q9Y287 90-236): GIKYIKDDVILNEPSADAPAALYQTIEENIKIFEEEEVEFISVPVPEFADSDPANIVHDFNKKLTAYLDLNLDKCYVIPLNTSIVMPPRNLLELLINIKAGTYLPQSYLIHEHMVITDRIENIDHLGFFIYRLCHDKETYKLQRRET
Procedure: Prior to electrospray ionization mass spectrometry (ESI-MS), purified Bri2(90-236) (SEQ ID NO: 2) was rebuffered into 10 mM ammonium acetate, pH 7.0, using spin columns with a 3 kDa cut-off limit (Nanosep, Pall Corp., East Hills, N.Y., USA). Protein and peptides were mixed at 22° C. directly before analysis at a final protein concentration of 20 μM and a final peptide concentration of 50 μM. Data was acquired using a QTOF Ultima API mass spectrometer (Waters, Milford, Mass., USA) equipped with a Z-spray source operated in the positive-ion mode. Samples were introduced via nano-electrospray using metal-plated borosilicate glass capillary needles (Proxeon, Denmark). The source temperature was 80° C., the capillary voltage 1.7 kV, and the cone and RF lens 1 potentials were 100 and 38 V, respectively. The mass spectrometer was operated in single-reflector mode at a resolution of 10 000 (full width half maximum definition), and the mass scale was calibrated using myoglobin. Scans were acquired at a rate of 1 scan per 2 sec between 500 and 4000 m/z. The collision gas was argon at 5.2×10^−5 mbar. Mass spectra were smoothed using the Waters MassLynx software.
All peptides, with the exception of KFFEYNGKKFFE (SEQ ID NO: 15), ABri23 (SEQ ID NO: 4) and Aβ1-40 (SEQ ID NO: 11), were purchased from Thermo Electron (Darmstadt, Germany). KFFEYNGKKFFE was purchased from Interactiva (Ulm, Germany) and Aβ1-40 and disulfide-linked ABri23 were from Bachem (Bubendorf, Switzerland).
Peptides, except for KFFEYNGKKFFE, ABri23 and Aβ1-40, were acetylated at the N-terminus and amidated at the C-terminus. The compositions of all peptides were verified by ESI-MS and amino acid analysis. Peptide YYY was dissolved to a final concentration of 10 mM in 30% acetonitrile. VVV, FFF and LLL were dissolved in 50% isopropanol to a final concentration of 10 mM. KKK, GGG and AAA were dissolved in water to a final concentration of 10 mM, while KFFEYNGKKFFE and ABri23 were dissolved in water to final concentrations of 5.6 mM and 1 mM, respectively. All peptide samples were stored at −20° C., except for Aβ1-40 which was dissolved to a final concentration of 1 mM in water directly prior to analysis.
To further investigate the substrate specificity of Bri2(90-236), homotripeptides with aromatic (YYY, FFF), hydrophobic (VVV, LLL), charged (KKK) or small uncharged (AAA, GGG) side-chains, were employed to study binding, under maintained water solubility. […] The peptide sequences are denoted in each spectrum. Symbols * and ** indicate peaks corresponding to recombinant Bri2(90-236) with one or two peptide ligands, respectively. […] Bri2(90-236) also binds the peptide KFFEYNGKKFFE (FIG. 6).

Aβ1-40 = target: T2, Aβ1-40 (Homo sapiens, UniProt P05067); type: biochemical; details: 0.1 and 1 molar equivalents to Aβ1-40; compared to the same amounts of Bri2(90-236); data not shown
T2 construct: made in house; host or cells: E. coli
T2 sequence (P05067 672-711): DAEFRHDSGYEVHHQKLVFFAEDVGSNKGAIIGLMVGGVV
Text: (§1) Aβ1-40 (SEQ ID NO: 11) and Aβ1-42 (SEQ ID NO: 12) were expressed in E. coli from synthetic genes and purified in batch format using ion exchange and size exclusion steps as described in Walsh et al., FEBS J. 2009, 276, 1266-1281, which results in highly pure monomeric peptide. Purified peptide was divided into 20-30 identical aliquots and frozen. Monomer was then isolated by gel filtration of an aliquot of purified peptide just prior to setting up each of the experiments listed below to remove traces of aggregate formed during freezing and thawing and to exchange buffer to the one used in the respective experiment. Monomer was collected in low-bind Ep-tubes ([…]) on ice, and the concentration was determined by absorbance or amino acid analysis after acid hydrolysis. The monomer was used as is or diluted to the desired concentration for the respective experiment. Bri2(90-236) (SEQ ID NO: 2) was expressed and purified as described in Example 1. Aggregation kinetics were studied by recording the Thioflavin T (ThT) fluorescence intensity as a function of time in a plate reader (FluoStar Omega from BMG Labtech, Offenberg, Germany). The fluorescence was recorded using bottom optics in half-area 96-well PEG-coated black polystyrene plates with clear bottom (Corning 3881) using 440 nm excitation filter and 480 nm emission filter. Aβ monomer was isolated by gel filtration as above in 20 mM Na-phosphate, 200 μM EDTA, 0.02% NaN3 (at pH 7.4 in the case of Aβ1-40 and at pH 8.0 for Aβ1-42) and diluted to 6 or 8 μM in the case of Aβ1-40 and 3 μM in the case of Aβ1-42 in the same buffer and supplemented with 20 μM ThT from a 2 mM stock. To each well in the 96-well plate was first added either 10 μl buffer (20 mM Tris/HCl pH 7.4) or 10 μl of Bri2(90-236) protein or control protein at ten times the desired final concentration in 20 mM Tris/HCl pH 7.4. To each well was then added 90 μl of the ice-cold Aβ monomer solution, and the plate was immediately placed in the plate reader at 37° C., with fluorescence read every 6 minutes with continuous shaking at 100 rpm between readings. Aβ1-40 was studied alone or with Bri2(90-236) at a concentration ranging from 60 nM to 6 μM. Aβ1-42 was studied alone or with Bri2(90-236) at a concentration ranging from 20 nM to 6 μM.

Aβ1-42 = target: T3, Aβ1-42 (Homo sapiens, UniProt P05067); assay: ThT aggregation kinetics of Aβ1-42 (Example 4); type: biochemical; details: 0.1 and 1 molar equivalents to Aβ1-42; compared to the same amounts of Bri2(90-236); data not shown
T3 construct: made in house; host or cells: E. coli
T3 sequence (P05067 672-713): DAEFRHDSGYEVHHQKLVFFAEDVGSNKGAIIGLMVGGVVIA
Text: as §1, with “Aβ1-40 was studied alone or with Bri2(90-236) at a concentration ranging from 60 nM to 6 μM. Aβ1-42 was studied alone or with Bri2(90-236) at a concentration ranging from 20 nM to 6 μM.” left out

Substance	complex formation of peptide with recombinant Bri2(90-236) (recombinant Bri2(90-236))	other results
LLL: homotripeptide with hydrophobic side-chains (Ac-Leu-Leu-Leu-NH2)	No interactions were observed	
VVV: homotripeptide with hydrophobic side-chains (Ac-Val-Val-Val-NH2)	No interactions were observed	
KKK: homotripeptide with charged side-chains (Ac-Lys-Lys-Lys-NH2)	No interactions were observed	
FFF: homotripeptide with aromatic side-chains (Ac-Phe-Phe-Phe-NH2)	No interactions were observed	
YYY: homotripeptide with aromatic side-chains (Ac-Tyr-Tyr-Tyr-NH2)	found to form complexes	number of peptide molecules per Bri2(90-236) in complexes (recombinant Bri2(90-236); 50 μM peptide): one or two
cystatin [reference compound]		effects of control protein on Aβ1-40 aggregation (ThT assay) (Aβ1-40): small; effects of control protein on Aβ1-42 aggregation (ThT assay) (Aβ1-42): small
KFFEYNGKKFFE	found to form complexes	
AAA: homotripeptide with small uncharged side-chains	No interactions were observed	
GGG: homotripeptide with small uncharged side-chains (Ac-Gly-Gly-Gly-NH2)	No interactions were observed	
